The supplement of paper PMC7877785
± gives the uncertainty stated by the source.

Experiment: self-splicing fitness, log relative to wild type (ln ratio); higher = more splicing; Tetrahymena group I intron in knt gene, E. coli kanamycin selection, DiMSum; sequences stand for … in CUCUCU…GGAGGGAAAAGUUAUCAGGCAUGCACCUGGUAGCUAGUCUUUAAACCAAUAGAUUGCAUCGGUUUAAAAGGCAAGACCGUCAAAUUGCGGGAAAGGGGUCAACAGCCGUUCAGUACCAAGUCUCAGGGGAAACUUUGAGAUGGCCUUGCAAAGGGUAUGGUAAUAAGCUGACGGACAUGGUCCUAACCACGCAGCCAAGUCCUAAGUCAACAGAUCUUCUGUUGAUAUGGAUGCAGUUCACAGACUAAAUGUCGGUCGGGGAAGAUGUAUUCUUCUCAUAAGAUAUAGUCGGACCUCUCCUUAAUGGGAGCUAGCGGAUGAAGUGAUGCAACACUGGAGCCGCUGGGAACUAAUUUGUAUGCGAAAGUAUAUUGAUUAGUUUUGGAGUACUCGUGGUCG
How it was run: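 Fitness was computed with DiMSum as the error-weighted combination of replicate fold changes, kanamycin versus none, each normalised to wild type. The library randomised all eight intron nucleotides of the P1ex region, with the intron placed in the knt kanamycin-resistance gene on pET-22b(+) in E. coli BL21(DE3). Six replicate transformations were grown overnight at 37°C or 30°C on LB agar with or without 25 μg/mL kanamycin, plus 100 μg/mL carbenicillin, 50 μM IPTG and 0.2% rhamnose. Pooled colonies were amplicon-sequenced on an Illumina HiSeq 2500.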

Sequence | self-splicing fitness (ln) (30 °C) | self-splicing fitness (ln) (37 °C)
UUAAAGCAAUAUUACGGCUC | -0.0999 ± 0.18 | 0.714 ± 0.23
AAUCAGCAAUAUUACGAAAA | -1.45 ± 0.092 | -0.169 ± 0.1
UAUGAGCAAUAUUACGAUCG | -1.79 ± 0.12 | -0.568 ± 0.12
CAUUAGCAAUAUUACGUGAA | -2.94 ± 0.21 | -3.18 ± 0.29
CUUAAGCAAUAUUACGGUGG | -1.7 ± 0.092 | -0.937 ± 0.1
CCGUAGCAAUAUUACGGCCU | -1.36 ± 0.14 | -2.7 ± 0.41
CCAUAGCAAUAUUACGCACA | -3.14 ± 0.28 | -1.45 ± 0.27
UCAUAGCAAUAUUACGGCAA | -2.25 ± 0.13 | -1.14 ± 0.1
AGGAAGCAAUAUUACGACCU | -2.74 ± 0.22 | -2.29 ± 0.21
CUAGAGCAAUAUUACGAUAU | -3.18 ± 0.27 | -2.09 ± 0.25
AAAAAGCAAUAUUACGUGCC | -0.945 ± 0.11 | -1.17 ± 0.12
GUGCAGCAAUAUUACGGUUG | -2.62 ± 0.19 | -1.95 ± 0.16
GUCUAGCAAUAUUACGCUCA | 0.346 ± 0.16 | 0.103 ± 0.19
CGUGAGCAAUAUUACGAUUG | -0.949 ± 0.09 | -0.662 ± 0.13
AGGGAGCAAUAUUACGUGAU | -3.34 ± 0.25 | -2.91 ± 0.26
GCUCAGCAAUAUUACGUAUU | -0.945 ± 0.053 | -0.23 ± 0.068
CAAAAGCAAUAUUACGGGAA | -2.69 ± 0.23 | -1.13 ± 0.2
UGGGAGCAAUAUUACGAUCA | -0.66 ± 0.22 | -0.124 ± 0.19
GUCUAGCAAUAUUACGGACA | -1.63 ± 0.18 | -0.275 ± 0.14

Sequence | self-splicing fitness (ln) (30 °C) | self-splicing fitness (ln) (37 °C)
UCUUAGCAAUAUUACGGUUU | -3.61 ± 0.22 | -1.77 ± 0.2
ACAUAGCAAUAUUACGUCUC | – | -2.01 ± 0.25
GCGAAGCAAUAUUACGUAUA | -2.18 ± 0.29 | 0.188 ± 0.43
AAACAGCAAUAUUACGGCGC | -1.43 ± 0.11 | -0.594 ± 0.16
GCCCAGCAAUAUUACGCUUG | -3.45 ± 0.2 | -1.79 ± 0.17
UAAGAGCAAUAUUACGUAGC | -4.28 ± 0.31 | -2.71 ± 0.28
GACCAGCAAUAUUACGGCAU | 0.00655 ± 0.046 | 0.553 ± 0.068
UUAGAGCAAUAUUACGAGAG | -0.212 ± 0.24 | -1.7 ± 0.24
UACUAGCAAUAUUACGCCUA | -0.895 ± 0.14 | 0.591 ± 0.13
AUCAAGCAAUAUUACGUGAU | -3.81 ± 0.2 | -2.23 ± 0.17
ACUUAGCAAUAUUACGCUAC | -2.59 ± 0.34 | -1.9 ± 0.33
AGAUAGCAAUAUUACGGAUU | -1.39 ± 0.1 | 0.228 ± 0.13
AUGUAGCAAUAUUACGCAAA | -2.34 ± 0.33 | -1.07 ± 0.2
GACAAGCAAUAUUACGCUCG | -1.47 ± 0.17 | -0.891 ± 0.21
AGGGAGCAAUAUUACGCGGA | -2.2 ± 0.21 | -2.68 ± 0.3
CUGGAGCAAUAUUACGUUGU | -2.64 ± 0.29 | -3.72 ± 0.33
GCUUAGCAAUAUUACGCCCG | -1.04 ± 0.15 | -0.534 ± 0.2
GGACAGCAAUAUUACGCACG | -0.391 ± 0.084 | 0.295 ± 0.1
